From patent US20230406935A1 (F STAR THERAPEUTICS, published 2023)

Molecular target: Human PD-L1 expressed on cells (human, UniProt Q9NZQ7 19-290)
Experiment: cell-based or functional assay

Sequence of Human PD-L1 expressed on cells (Q9NZQ7 19-290 limits assumed): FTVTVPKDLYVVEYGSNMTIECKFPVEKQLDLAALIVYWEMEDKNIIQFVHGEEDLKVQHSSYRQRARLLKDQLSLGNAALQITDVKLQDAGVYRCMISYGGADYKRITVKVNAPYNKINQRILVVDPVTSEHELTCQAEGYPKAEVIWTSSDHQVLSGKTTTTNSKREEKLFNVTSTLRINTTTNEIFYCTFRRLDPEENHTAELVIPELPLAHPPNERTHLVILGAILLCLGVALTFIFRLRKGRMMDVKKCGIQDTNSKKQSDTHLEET

Binder	SEB assay (IFNγ release) EC50 [nM]
Fcab FS17-33-116 with LALA mutation (designed binder) TCPPCPAPEAAGGPSVFLFPPKPKDTLMISRTPEVTCVVVDVSHEDPEVKFNWYVDGVEVHNAKTKPREEQYNSTYRVVSVLTVLHQDWLNGKEYKCKVSNKALPAPIEKTISKAKGQPREPQVYTLPPSRDESGYWVSLTCLVKGFYPSDIVVEWESNGEPQYWAKTTPPVLDSDGSFFLYSKLTVSNWRWQMDDFSCSVMHEALHNHYTQKSLSLSPGK	0.1
Fcab FS17-33-296 with LALA mutation (designed binder) TCPPCPAPEAAGGPSVFLFPPKPKDTLMISRTPEVTCVVVDVSHEDPEVKFNWYVDGVEVHNAKTKPREEQYNSTYRVVSVLTVLHQDWLNGKEYKCKVSNKALPAPIEKTISKAKGQPREPQVYTLPPSRDESGYWVSLTCLVKGFYPSDIVVEWESNGEPQYWAKTTPPVLDSDGSFFLYSKLTVSNWRWQVDDFSCSVMHEALHNHYTQKSLSLSPGK	0.124
Fcab FS17-33-288 with LALA mutation (designed binder) TCPPCPAPEAAGGPSVFLFPPKPKDTLMISRTPEVTCVVVDVSHEDPEVKFNWYVDGVEVHNAKTKPREEQYNSTYRVVSVLTVLHQDWLNGKEYKCKVSNKALPAPIEKTISKAKGQPREPQVYTLPPSRDESGYWVSLTCLVKGFYPSDIVVEWESNGEPQYWAKTTPPVLDSDGSFFLYSKLTVSNWRWQIDDFSCSVMHEALHNHYTQKSLSLSPGK	0.0899
Fcab FS17-33-289 with LALA mutation (designed binder) TCPPCPAPEAAGGPSVFLFPPKPKDTLMISRTPEVTCVVVDVSHEDPEVKFNWYVDGVEVHNAKTKPREEQYNSTYRVVSVLTVLHQDWLNGKEYKCKVSNKALPAPIEKTISKAKGQPREPQVYTLPPSRDESGYWVSLTCLVKGFYPSDIVVEWESNGEPQYWAKTTPPVLDSDGSFFLYSKLTVSNWRWQLDDFSCSVMHEALHNHYTQKSLSLSPGK	0.108
Fcab FS17-33-334 with LALA mutation (designed binder) TCPPCPAPEAAGGPSVFLFPPKPKDTLMISRTPEVTCVVVDVSHEDPEVKFNWYVDGVEVHNAKTKPREEQYNSTYRVVSVLTVLHQDWLNGKEYKCKVSNKALPAPIEKTISKAKGQPREPQVYTLPPSRDESGYWVSLTCLVKGFYPSDIAVEWESNGEPQYWAKTTPPVLDSDGSFFLYSKLTVSNWRWQLDDFSCSVMHEALHNHYTQKSLSLSPGK	0.144
Fcab FS17-33-289 (designed binder) TCPPCPAPELLGGPSVFLFPPKPKDTLMISRTPEVTCVVVDVSHEDPEVKFNWYVDGVEVHNAKTKPREEQYNSTYRVVSVLTVLHQDWLNGKEYKCKVSNKALPAPIEKTISKAKGQPREPQVYTLPPSRDESGYWVSLTCLVKGFYPSDIVVEWESNGEPQYWAKTTPPVLDSDGSFFLYSKLTVSNWRWQLDDFSCSVMHEALHNHYTQKSLSLSPGK	0.0886
Fcab FS17-33-296 (designed binder) TCPPCPAPELLGGPSVFLFPPKPKDTLMISRTPEVTCVVVDVSHEDPEVKFNWYVDGVEVHNAKTKPREEQYNSTYRVVSVLTVLHQDWLNGKEYKCKVSNKALPAPIEKTISKAKGQPREPQVYTLPPSRDESGYWVSLTCLVKGFYPSDIVVEWESNGEPQYWAKTTPPVLDSDGSFFLYSKLTVSNWRWQVDDFSCSVMHEALHNHYTQKSLSLSPGK	0.0869
FS17-33-289AA/HelD1.3 mock mAb^2 (bispecific antibody, human IgG1, kappa, L234A L235A, also called F17-33-289AA/HelD1.3; F17-33-289AA/HELD1.3) heavy: QVQLQESGPGLVRPSQTLSLTCTVSGSTFSGYGVNWVRQPPGRGLEWIGMIWGDGNTDYNSALKSRVTMLVDTSKNQFSLRLSSVTAADTAVYYCARERDYRLDYWGQGSLVTVSSASTKGPSVFPLAPSSKSTSGGTAALGCLVKDYFPEPVTVSWNSGALTSGVHTFPAVLQSSGLYSLSSVVTVPSSSLGTQTYICNVNHKPSNTKVDKKVEPKSCDKTHTCPPCPAPEAAGGPSVFLFPPKPKDTLMISRTPEVTCVVVDVSHEDPEVKFNWYVDGVEVHNAKTKPREEQYNSTYRVVSVLTVLHQDWLNGKEYKCKVSNKALPAPIEKTISKAKGQPREPQVYTLPPSRDESGYWVSLTCLVKGFYPSDIVVEWESNGEPQYWAKTTPPVLDSDGSFFLYSKLTVSNWRWQLDDFSCSVMHEALHNHYTQKSLSLSPGK light: DIQMTQSPASLSASVGETVTITCRASGNIHNYLAWYQQKQGKSPQLLVYNAKTLADGVPSRFSGSGSGTQYSLKINSLQPEDFGSYYCQHFWSTPRTFGGGTKLEIKRTVAAPSVFIFPPSDEQLKSGTASVVCLLNNFYPREAKVQWKVDNALQSGNSQESVTEQDSKDSTYSLSSTLTLSKADYEKHKVYACEVTHQGLSSPVTKSFNRGEC	0.566
FS17-33-296/HelD1.3 mock mAb^2 (without LALA) (bispecific antibody, human IgG1, kappa) heavy: QVQLQESGPGLVRPSQTLSLTCTVSGSTFSGYGVNWVRQPPGRGLEWIGMIWGDGNTDYNSALKSRVTMLVDTSKNQFSLRLSSVTAADTAVYYCARERDYRLDYWGQGSLVTVSSASTKGPSVFPLAPSSKSTSGGTAALGCLVKDYFPEPVTVSWNSGALTSGVHTFPAVLQSSGLYSLSSVVTVPSSSLGTQTYICNVNHKPSNTKVDKKVEPKSCDKTHTCPPCPAPELLGGPSVFLFPPKPKDTLMISRTPEVTCVVVDVSHEDPEVKFNWYVDGVEVHNAKTKPREEQYNSTYRVVSVLTVLHQDWLNGKEYKCKVSNKALPAPIEKTISKAKGQPREPQVYTLPPSRDESGYWVSLTCLVKGFYPSDIVVEWESNGEPQYWAKTTPPVLDSDGSFFLYSKLTVSNWRWQVDDFSCSVMHEALHNHYTQKSLSLSPGK light: DIQMTQSPASLSASVGETVTITCRASGNIHNYLAWYQQKQGKSPQLLVYNAKTLADGVPSRFSGSGSGTQYSLKINSLQPEDFGSYYCQHFWSTPRTFGGGTKLEIKRTVAAPSVFIFPPSDEQLKSGTASVVCLLNNFYPREAKVQWKVDNALQSGNSQESVTEQDSKDSTYSLSSTLTLSKADYEKHKVYACEVTHQGLSSPVTKSFNRGEC	1.71
FS17-33-289/HelD1.3 mock mAb^2 (without LALA) (bispecific antibody, human IgG1, kappa) heavy: QVQLQESGPGLVRPSQTLSLTCTVSGSTFSGYGVNWVRQPPGRGLEWIGMIWGDGNTDYNSALKSRVTMLVDTSKNQFSLRLSSVTAADTAVYYCARERDYRLDYWGQGSLVTVSSASTKGPSVFPLAPSSKSTSGGTAALGCLVKDYFPEPVTVSWNSGALTSGVHTFPAVLQSSGLYSLSSVVTVPSSSLGTQTYICNVNHKPSNTKVDKKVEPKSCDKTHTCPPCPAPELLGGPSVFLFPPKPKDTLMISRTPEVTCVVVDVSHEDPEVKFNWYVDGVEVHNAKTKPREEQYNSTYRVVSVLTVLHQDWLNGKEYKCKVSNKALPAPIEKTISKAKGQPREPQVYTLPPSRDESGYWVSLTCLVKGFYPSDIVVEWESNGEPQYWAKTTPPVLDSDGSFFLYSKLTVSNWRWQLDDFSCSVMHEALHNHYTQKSLSLSPGK light: DIQMTQSPASLSASVGETVTITCRASGNIHNYLAWYQQKQGKSPQLLVYNAKTLADGVPSRFSGSGSGTQYSLKINSLQPEDFGSYYCQHFWSTPRTFGGGTKLEIKRTVAAPSVFIFPPSDEQLKSGTASVVCLLNNFYPREAKVQWKVDNALQSGNSQESVTEQDSKDSTYSLSSTLTLSKADYEKHKVYACEVTHQGLSSPVTKSFNRGEC	0.969
FS17-33-334AA/HelD1.3 mock mAb^2 (bispecific antibody, human IgG1, kappa, L234A L235A) heavy: QVQLQESGPGLVRPSQTLSLTCTVSGSTFSGYGVNWVRQPPGRGLEWIGMIWGDGNTDYNSALKSRVTMLVDTSKNQFSLRLSSVTAADTAVYYCARERDYRLDYWGQGSLVTVSSASTKGPSVFPLAPSSKSTSGGTAALGCLVKDYFPEPVTVSWNSGALTSGVHTFPAVLQSSGLYSLSSVVTVPSSSLGTQTYICNVNHKPSNTKVDKKVEPKSCDKTHTCPPCPAPEAAGGPSVFLFPPKPKDTLMISRTPEVTCVVVDVSHEDPEVKFNWYVDGVEVHNAKTKPREEQYNSTYRVVSVLTVLHQDWLNGKEYKCKVSNKALPAPIEKTISKAKGQPREPQVYTLPPSRDESGYWVSLTCLVKGFYPSDIAVEWESNGEPQYWAKTTPPVLDSDGSFFLYSKLTVSNWRWQLDDFSCSVMHEALHNHYTQKSLSLSPGK light: DIQMTQSPASLSASVGETVTITCRASGNIHNYLAWYQQKQGKSPQLLVYNAKTLADGVPSRFSGSGSGTQYSLKINSLQPEDFGSYYCQHFWSTPRTFGGGTKLEIKRTVAAPSVFIFPPSDEQLKSGTASVVCLLNNFYPREAKVQWKVDNALQSGNSQESVTEQDSKDSTYSLSSTLTLSKADYEKHKVYACEVTHQGLSSPVTKSFNRGEC	0.761
FS17-33-296AA/HelD1.3 mock mAb^2 (bispecific antibody, human IgG1, kappa, L234A L235A, also called F17-33-296AA/HelD1.3; F17-33-296AA/HELD1.3) heavy: QVQLQESGPGLVRPSQTLSLTCTVSGSTFSGYGVNWVRQPPGRGLEWIGMIWGDGNTDYNSALKSRVTMLVDTSKNQFSLRLSSVTAADTAVYYCARERDYRLDYWGQGSLVTVSSASTKGPSVFPLAPSSKSTSGGTAALGCLVKDYFPEPVTVSWNSGALTSGVHTFPAVLQSSGLYSLSSVVTVPSSSLGTQTYICNVNHKPSNTKVDKKVEPKSCDKTHTCPPCPAPEAAGGPSVFLFPPKPKDTLMISRTPEVTCVVVDVSHEDPEVKFNWYVDGVEVHNAKTKPREEQYNSTYRVVSVLTVLHQDWLNGKEYKCKVSNKALPAPIEKTISKAKGQPREPQVYTLPPSRDESGYWVSLTCLVKGFYPSDIVVEWESNGEPQYWAKTTPPVLDSDGSFFLYSKLTVSNWRWQVDDFSCSVMHEALHNHYTQKSLSLSPGK light: DIQMTQSPASLSASVGETVTITCRASGNIHNYLAWYQQKQGKSPQLLVYNAKTLADGVPSRFSGSGSGTQYSLKINSLQPEDFGSYYCQHFWSTPRTFGGGTKLEIKRTVAAPSVFIFPPSDEQLKSGTASVVCLLNNFYPREAKVQWKVDNALQSGNSQESVTEQDSKDSTYSLSSTLTLSKADYEKHKVYACEVTHQGLSSPVTKSFNRGEC	1.77
FS17-33-288AA/HelD1.3 mock mAb^2 (bispecific antibody, human IgG1, kappa, L234A L235A, also called F17-33-288AA/HelD1.3; F17-33-288AA/HELD1.3) heavy: QVQLQESGPGLVRPSQTLSLTCTVSGSTFSGYGVNWVRQPPGRGLEWIGMIWGDGNTDYNSALKSRVTMLVDTSKNQFSLRLSSVTAADTAVYYCARERDYRLDYWGQGSLVTVSSASTKGPSVFPLAPSSKSTSGGTAALGCLVKDYFPEPVTVSWNSGALTSGVHTFPAVLQSSGLYSLSSVVTVPSSSLGTQTYICNVNHKPSNTKVDKKVEPKSCDKTHTCPPCPAPEAAGGPSVFLFPPKPKDTLMISRTPEVTCVVVDVSHEDPEVKFNWYVDGVEVHNAKTKPREEQYNSTYRVVSVLTVLHQDWLNGKEYKCKVSNKALPAPIEKTISKAKGQPREPQVYTLPPSRDESGYWVSLTCLVKGFYPSDIVVEWESNGEPQYWAKTTPPVLDSDGSFFLYSKLTVSNWRWQIDDFSCSVMHEALHNHYTQKSLSLSPGK light: DIQMTQSPASLSASVGETVTITCRASGNIHNYLAWYQQKQGKSPQLLVYNAKTLADGVPSRFSGSGSGTQYSLKINSLQPEDFGSYYCQHFWSTPRTFGGGTKLEIKRTVAAPSVFIFPPSDEQLKSGTASVVCLLNNFYPREAKVQWKVDNALQSGNSQESVTEQDSKDSTYSLSSTLTLSKADYEKHKVYACEVTHQGLSSPVTKSFNRGEC	1.02
